The record followed here is publication PMC7442695 (Nature, 2020).

The target in this test is SARS-CoV-2 receptor binding domain (RBD; residues 331–524) (SARS-CoV-2, early isolate (GenBank …, UniProt P0DTC2). Put plainly: BLI.

B1: C101 monoclonal antibody (IgG) (antibody, V domains shown)
VH: QVQLVESGGGLIQPGGSLRLSCAASGFIVSSNYMSWVRQAPGKGLEWVSVIYSGGSTFYTDSVKGRFTISRDNSKNTLYLQMNSLRAEDTAVYYCVRDYGDFYFDYWGQGTLVTVSS
VL: EIVLTQSPGTLSLSPGERATLSCRASQSVSSSYLAWYQQKPGQAPRLLIYGASSRATGIPDRFSGGGSETDFTLTISRLEPEDCAVYYCQQYGSSPRTFGQGTKVEIK
As to B1, the binding result was “binds”.

B2: C119 monoclonal antibody (IgG) (antibody, V domains shown)
VH: QVQLVQSGAEVKKPGASVKVSCKASGYTFTSYYMHWVRQAPGQGLEWMGIINPSGGSTSYAQKLQGRVTMTRDTSTSTVYMELSSLRSEDTAVYYCARANHETTMDTYYYYYYMDVWGKGTTVTVSS
VL: QSALTQPASVSGSPGQSITISCTGTSSDVGGYKYVSWYQRHPGKAPKLMIYDVSNRPSGVSNRFSGSKSGNTASLTISGLQAEDEADYYCSSYTSSSTSVVFGGGTQLTVL
As for B2, the binding result was “binds”.

B3: C121 monoclonal antibody (IgG) (antibody, V domains shown)
VH: not shown
VL: QSALTQPASVSGSPGQSITISCTGTSSDVGSYNLVSWYQQHPGKAPKLMIYEGSKRPSGVSNRFSGSKSGNTASLTISGLQAEDEADYYCCSYAGSSTLVFGGGTKLTVL
Take B3: the binding result is listed as “binds”.

B4: C002 monoclonal antibody (IgG) (antibody, V domains shown)
VH: EVQLVESGGGVVQPGRSLRLSCAASGFTFSIYGMHWVRQAPGKGLEWVAVISYDGSNKYYADSVKGRFTISRDNSKNTLYLQMNSLRAEDTAVYYCAKEGRPSDIVVVVAFDYWGQGTLVTVSS
VL: not shown
With B4, the binding result was “binds”.

B5: C009 monoclonal antibody (IgG) (antibody, V domains shown)
VH: not shown
VL: QSALTQPPSASGSPGQSVTISCTGTSSDVGGYNYVSWYQQHPGKAPKLMIYEVSKRPSGVPDRFSGSKSGNTASLTVSGLQAEDEAEYYCSSDAGSNNVVFGGGTKLTVL
For the molecule B5, the binding result was “binds”.
